Experimental data as given in the supplement of paper PMC10567573.

B1: KCNA4 (parent)
chain: YQLGEEALLKFREDEGFVREEEDR
B2: SLC35F2 (parent)
chain: FVAFALCMFCLYSFMPLVIKVTSA

Variants of: B1
Experiment: protein stability index of a GFP-peptide fusion (GPS, HEK-293T) (PSI 1-6); higher = more stable
Details: c terminus: a fixed tail appended
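Note: lentivirally expressed fusions sorted by FACS into six bins by GFP to DsRed ratio, PSI derived from sequencing read proportions per bin multiplied by bin number.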

Going from YQLGIEALLKFREDEGFVREEEDR to YQLGLEALLKFREDEGFVREEEDR, the protein stability index rises from 3.55 to 3.83.

Going from YQLGKEALLKFREDEGFVREEEDR to YQLGMEALLKFREDEGFVREEEDR, the protein stability index rises from 3.3 to 3.37.

First: YQLGGEALLKFREDEGFVREEEDR
Second: YQLGDEALLKFREDEGFVREEEDR
The protein stability index of the first is lower: 3.87 for the first, 4.97 for the second.

First: YQLGFEALLKFREDEGFVREEEDR
Second: YQLGNEALLKFREDEGFVREEEDR
The protein stability index of the first is lower: 2.93 for the first, 4.22 for the second.

Compared with YQLGCEALLKFREDEGFVREEEDR, YQLGAEALLKFREDEGFVREEEDR is lower in protein stability index: 4.32 for the first, 3.65 for the second.

First: YQLGHEALLKFREDEGFVREEEDR
Second: YELGEEALLKFREDEGFVREEEDR
The protein stability index of the first is lower: 3.76 for the first, 5.37 for the second.

Compared with YILGEEALLKFREDEGFVREEEDR, YFLGEEALLKFREDEGFVREEEDR is lower in protein stability index: 4.43 for the first, 4.15 for the second.

First: YVLGEEALLKFREDEGFVREEEDR
Second: YMLGEEALLKFREDEGFVREEEDR
The protein stability index of the first is lower: 4.21 for the first, 4.79 for the second.

Compared with YSLGEEALLKFREDEGFVREEEDR, YTLGEEALLKFREDEGFVREEEDR is lower in protein stability index: 5.61 for the first, 5.31 for the second.

Going from YKLGEEALLKFREDEGFVREEEDR to YCLGEEALLKFREDEGFVREEEDR, the protein stability index falls from 5.7 to 4.91.

First: YALGEEALLKFREDEGFVREEEDR
Second: YWLGEEALLKFREDEGFVREEEDR
The protein stability index of the first is higher: 5.36 for the first, 4.19 for the second.

Going from YPLGEEALLKFREDEGFVREEEDR to YLLGEEALLKFREDEGFVREEEDR, the protein stability index falls from 5.15 to 4.24.

Compared with YYLGEEALLKFREDEGFVREEEDR, YHLGEEALLKFREDEGFVREEEDR is lower in protein stability index: 4.31 for the first, 2.94 for the second.

Going from YNLGEEALLKFREDEGFVREEEDR to YDLGEEALLKFREDEGFVREEEDR, the protein stability index rises from 5.23 to 5.62.

First: YRLGEEALLKFREDEGFVREEEDR
Second: YGLGEEALLKFREDEGFVREEEDR
The protein stability index of the first is lower: 5.09 for the first, 5.23 for the second.

First: YQLQEEALLKFREDEGFVREEEDR
Second: YQLHEEALLKFREDEGFVREEEDR
The protein stability index of the first is higher: 5.08 for the first, 4.8 for the second.

Going from YQLKEEALLKFREDEGFVREEEDR to YQLEEEALLKFREDEGFVREEEDR, the protein stability index rises from 5.34 to 5.77.

First: YQLVEEALLKFREDEGFVREEEDR
Second: YQLSEEALLKFREDEGFVREEEDR
The protein stability index of the first is higher: 5.11 for the first, 3.81 for the second.

Compared with YQLTEEALLKFREDEGFVREEEDR, YQLDEEALLKFREDEGFVREEEDR is higher in protein stability index: 4.12 for the first, 4.43 for the second.

First: YQLLEEALLKFREDEGFVREEEDR
Second: YQLNEEALLKFREDEGFVREEEDR
The protein stability index of the first is higher: 4.41 for the first, 4.28 for the second.

Going from YQLYEEALLKFREDEGFVREEEDR to YQLMEEALLKFREDEGFVREEEDR, the protein stability index rises from 4.57 to 5.27.

Compared with YQLCEEALLKFREDEGFVREEEDR, YQLPEEALLKFREDEGFVREEEDR is higher in protein stability index: 4.51 for the first, 5.03 for the second.

Going from YQLREEALLKFREDEGFVREEEDR to YQLAEEALLKFREDEGFVREEEDR, the protein stability index rises from 4.56 to 5.24.

Compared with YQLIEEALLKFREDEGFVREEEDR, YQLFEEALLKFREDEGFVREEEDR is lower in protein stability index: 4.83 for the first, 4.28 for the second.

Going from YQLWEEALLKFREDEGFVREEEDR to YQRGEEALLKFREDEGFVREEEDR, the protein stability index rises from 4.4 to 4.75.

Compared with YQMGEEALLKFREDEGFVREEEDR, YQTGEEALLKFREDEGFVREEEDR is higher in protein stability index: 3.76 for the first, 5.31 for the second.

Going from YQYGEEALLKFREDEGFVREEEDR to YQSGEEALLKFREDEGFVREEEDR, the protein stability index falls from 5.23 to 4.86.

First: YQQGEEALLKFREDEGFVREEEDR
Second: YQGGEEALLKFREDEGFVREEEDR
The protein stability index of the first is higher: 5.62 for the first, 4.53 for the second.

Compared with YQHGEEALLKFREDEGFVREEEDR, YQKGEEALLKFREDEGFVREEEDR is lower in protein stability index: 5.22 for the first, 5.02 for the second.

Going from YQAGEEALLKFREDEGFVREEEDR to YQIGEEALLKFREDEGFVREEEDR, the protein stability index falls from 5.22 to 5.12.

Compared with YQEGEEALLKFREDEGFVREEEDR, YQWGEEALLKFREDEGFVREEEDR is lower in protein stability index: 5.67 for the first, 3.89 for the second.

Going from YQNGEEALLKFREDEGFVREEEDR to YQPGEEALLKFREDEGFVREEEDR, the protein stability index falls from 5.68 to 5.28.

Compared with YQVGEEALLKFREDEGFVREEEDR, YQDGEEALLKFREDEGFVREEEDR is higher in protein stability index: 5.28 for the first, 5.85 for the second.

First: YQFGEEALLKFREDEGFVREEEDR
Second: YQCGEEALLKFREDEGFVREEEDR
The protein stability index of the first is higher: 4.7 for the first, 4.38 for the second.

First: QQLGEEALLKFREDEGFVREEEDR
Second: KQLGEEALLKFREDEGFVREEEDR
The protein stability index of the first is lower: 5.41 for the first, 5.6 for the second.

Compared with MQLGEEALLKFREDEGFVREEEDR, DQLGEEALLKFREDEGFVREEEDR is higher in protein stability index: 5.47 for the first, 5.79 for the second.

First: FQLGEEALLKFREDEGFVREEEDR
Second: TQLGEEALLKFREDEGFVREEEDR
The protein stability index of the first is lower: 4.45 for the first, 5.57 for the second.

Compared with CQLGEEALLKFREDEGFVREEEDR, VQLGEEALLKFREDEGFVREEEDR is higher in protein stability index: 5.21 for the first, 5.58 for the second.

Compared with SQLGEEALLKFREDEGFVREEEDR, RQLGEEALLKFREDEGFVREEEDR is higher in protein stability index: 5.53 for the first, 5.81 for the second.

Compared with AQLGEEALLKFREDEGFVREEEDR, IQLGEEALLKFREDEGFVREEEDR is lower in protein stability index: 5.7 for the first, 5.3 for the second.

First: WQLGEEALLKFREDEGFVREEEDR
Second: PQLGEEALLKFREDEGFVREEEDR
The protein stability index of the first is lower: 5.25 for the first, 5.63 for the second.

First: LQLGEEALLKFREDEGFVREEEDR
Second: EQLGEEALLKFREDEGFVREEEDR
The protein stability index of the first is lower: 4.96 for the first, 5.74 for the second.

Compared with HQLGEEALLKFREDEGFVREEEDR, NQLGEEALLKFREDEGFVREEEDR is higher in protein stability index: 5.47 for the first, 5.67 for the second.

GQLGEEALLKFREDEGFVREEEDR showed a protein stability index of 5.95.

Variants of: B2
Experiment: as above
Details: c terminus: a fixed tail appended

First: FVAFALCMFCLYSFMPLVIKVTSH
Second: FVAFALCMFCLYSFMPLVIKVTSM
The protein stability index of the first is higher: 3.79 for the first, 2.66 for the second.

Compared with FVAFALCMFCLYSFMPLVIKVTSC, FVAFALCMFCLYSFMPLVIKVTSP is higher in protein stability index: 1.31 for the first, 3.3 for the second.

Going from FVAFALCMFCLYSFMPLVIKVTSL to FVAFALCMFCLYSFMPLVIKVTSW, the protein stability index falls from 3.27 to 3.16.

Work on FVAFALCMFCLYSFMPLVIKVTSV yielded a protein stability index of 3.15.
